The text below walks through data of patent US20200115464A1 (Regeneron, published 2020).

Residue numbers refer to the chain shown, from its start.

Assay [1] concerns the target T1, human CD20 on cells (Raji, CD3-, CD20+ human B-cell line; B16F10.9/CD20 cells) (human, UniProt P11836 1-297).
T1 sequence (looked up): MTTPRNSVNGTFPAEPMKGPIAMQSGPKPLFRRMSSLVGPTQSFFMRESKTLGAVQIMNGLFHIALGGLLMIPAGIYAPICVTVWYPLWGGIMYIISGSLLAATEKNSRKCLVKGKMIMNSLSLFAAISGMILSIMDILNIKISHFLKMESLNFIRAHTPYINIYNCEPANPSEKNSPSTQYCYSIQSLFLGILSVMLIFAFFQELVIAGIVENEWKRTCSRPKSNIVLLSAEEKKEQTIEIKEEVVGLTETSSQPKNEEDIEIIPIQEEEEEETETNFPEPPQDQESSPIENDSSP
Nature of the assay: cell-based or functional assay.

Assay [2] has as its target T1, human CD20 on cells (Raji, CD3-, CD20+ …). Nature of the assay: cell-based or functional assay. The source holds these as a separate data set.
For assay [3], the target named is T2, His-tagged human FcγRI (human, UniProt P12314 16-288).
T2 construct: also called human FcRγI; hFcγRI
T2 sequence (P12314 16-288 limits assumed): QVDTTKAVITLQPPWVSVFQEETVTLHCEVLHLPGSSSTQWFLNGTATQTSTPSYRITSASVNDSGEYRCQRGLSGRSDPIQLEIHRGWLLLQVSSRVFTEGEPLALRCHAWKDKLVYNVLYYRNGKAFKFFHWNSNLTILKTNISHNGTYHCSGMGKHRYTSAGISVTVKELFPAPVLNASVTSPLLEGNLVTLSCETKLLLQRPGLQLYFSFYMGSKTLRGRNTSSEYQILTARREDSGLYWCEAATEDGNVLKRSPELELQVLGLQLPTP
Nature of the assay: SPR (Biacore T200), His-captured human FcγRI, antibody injected, 25 C. As to the method: Briefly, SPR experiments were performed at 25° C. on a Biacore T200 instrument employing a carboxymethyl dextran-coated (CM-5) chip. A mouse monoclonal anti-penta-histidine antibody (GE Healthcare) was immobilized on the surface of the CM-5 sensor chip using standard amine-coupling chemistry. […] Kinetic association (kₐ) and dissociation (kd) rate constants were determined by processing and fitting the data to a 1:1 binding model using Scrubber 2.0 curve fitting software. Binding dissociation equilibrium constants (KD) and dissociative half-lives (t_{1/2}) were calculated from the kinetic rate constants as: KD (M)=kd/kₐ; and t_{1/2}(min)=(ln 2/(60*kd).
For orientation: SPR reads the build-up and loss of mass on a sensor chip optically.

Assay [4] has as its target T3, His-tagged human FcγRIIA (H131) (human, UniProt P12318 36-218, limits assumed).
T3 construct: also called hFcyRIIA (H131)
T3 sequence (looked up): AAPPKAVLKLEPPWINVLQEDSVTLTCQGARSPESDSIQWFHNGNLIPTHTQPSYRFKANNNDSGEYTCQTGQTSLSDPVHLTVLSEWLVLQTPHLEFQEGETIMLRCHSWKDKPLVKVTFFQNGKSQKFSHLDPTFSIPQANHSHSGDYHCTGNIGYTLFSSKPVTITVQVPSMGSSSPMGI
Nature of the assay: SPR steady-state, His-captured FcγR, antibody injected, 25 C.

Assay [5] deals with T4, His-tagged cynomolgus FcγRIIIA (cynomolgus monkey, UniProt Q8SPW2 17-208, limits assumed).
T4 construct: also called cyno FcyRIIIA
T4 sequence (Q8SPW2 17-208 limits assumed): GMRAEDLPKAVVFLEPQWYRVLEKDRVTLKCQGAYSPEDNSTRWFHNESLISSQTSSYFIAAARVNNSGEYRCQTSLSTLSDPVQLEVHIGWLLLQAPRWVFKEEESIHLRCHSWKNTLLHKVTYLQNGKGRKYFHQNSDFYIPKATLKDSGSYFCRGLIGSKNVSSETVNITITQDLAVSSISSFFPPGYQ
Described as above.

Assay [6] addresses T5, His-tagged cynomolgus FcγRIIB (cynomolgus monkey, UniProt A0A140HDP4 46-217).
T5 construct: also called cyno FcyRIIB
T5 sequence: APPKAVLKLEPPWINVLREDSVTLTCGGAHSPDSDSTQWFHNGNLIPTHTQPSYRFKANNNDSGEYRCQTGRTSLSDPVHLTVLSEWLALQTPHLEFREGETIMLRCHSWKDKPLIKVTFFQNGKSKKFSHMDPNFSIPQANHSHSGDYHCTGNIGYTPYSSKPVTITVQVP
The description is as above.

The target of assay [7] is T6, His-tagged human FcγRIIB (human, UniProt P31994 46-217, limits assumed).
T6 construct: also called human FcyRIIB
T6 sequence (looked up): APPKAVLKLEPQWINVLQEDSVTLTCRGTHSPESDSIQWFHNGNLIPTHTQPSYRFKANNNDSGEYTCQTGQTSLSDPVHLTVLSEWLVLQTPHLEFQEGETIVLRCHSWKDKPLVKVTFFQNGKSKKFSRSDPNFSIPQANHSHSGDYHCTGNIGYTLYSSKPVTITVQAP
Described as above.

The target of assay [8] is T7, His-tagged human FcγRIIIA (F176) (human, UniProt P08637 17-208).
T7 construct: also called human FcyRIIIA (F176)
T7 sequence (P08637 17-208 limits assumed): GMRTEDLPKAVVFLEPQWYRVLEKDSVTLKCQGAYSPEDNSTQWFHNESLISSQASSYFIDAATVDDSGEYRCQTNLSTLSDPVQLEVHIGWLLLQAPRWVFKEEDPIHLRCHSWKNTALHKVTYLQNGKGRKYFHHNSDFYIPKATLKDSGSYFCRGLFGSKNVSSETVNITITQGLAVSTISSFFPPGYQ
The assay is described as above.

The target of assay [9] is T8, His-tagged human FcγRIIIA (V176) (human, UniProt P08637 17-208).
T8 construct: also called human FcyRIIIA (V176)
T8 sequence (P08637 17-208 F176V limits assumed): as the sequence (P08637 17-208 limits assumed) above, with F160V counted along it
Described as above.

Assay [10] has as its target T9, His-tagged human FcγRIIA (R131) (human, UniProt P12318 36-218, limits assumed).
T9 construct: also called human FcyRIIA (R131)
T9 sequence (looked up): T3 sequence (looked up) with H132R
Described as above.

For assay [11], the target named is T10, His-tagged cynomolgus FcγRIIA (cynomolgus monkey, UniProt A0A140HDN0 30-216).
T10 construct: also called cyno FcyRIIA
T10 sequence: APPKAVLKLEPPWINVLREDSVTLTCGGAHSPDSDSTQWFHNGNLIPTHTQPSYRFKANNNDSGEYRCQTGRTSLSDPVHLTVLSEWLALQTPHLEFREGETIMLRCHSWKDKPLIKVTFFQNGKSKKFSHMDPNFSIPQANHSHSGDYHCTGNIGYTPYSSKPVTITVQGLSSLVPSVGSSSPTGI
Described as above.

The target in assay [12] is T11, His-tagged human FcγRIIIB (human, UniProt O75015 17-200).
T11 construct: also called human FcyRIIIB
T11 sequence (O75015 17-200 limits assumed): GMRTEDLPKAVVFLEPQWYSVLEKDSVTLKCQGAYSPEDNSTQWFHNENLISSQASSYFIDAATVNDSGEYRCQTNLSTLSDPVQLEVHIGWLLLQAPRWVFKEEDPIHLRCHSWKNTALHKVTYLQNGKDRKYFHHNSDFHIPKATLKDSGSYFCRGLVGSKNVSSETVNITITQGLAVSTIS
Described as above.

Assay [13] concerns the target T12, cynomolgus CD3 on T cells of cynomolgus PBMCs (mkT cells) (cynomolgus monkey).
T12 construct: whole, on cells; also called cynomolgus T cells; monkey T-cells
As to the kind of experiment: FACS, serially diluted antibody on cynomolgus PBMC T cells (mkT cells). As to the method:
(§1) FACS data was acquired using the following protocol: Cells at 2×10⁵ per well were incubated with serially diluted antibodies for 30 min on ice. Post incubation, cells were washed and appropriate secondary (Jurkat, RAJI cells) or cocktail of secondary antibodies (for cyno PBMC) was added and incubated for an additional 30 minutes. After incubation, cells were washed, re-suspended in cold PBS containing 1% BSA and analyzed by flow cytometry on a BD FACS Canto II. Jurkat and Raji cells were gated by side and forward scatters, while cynomolgus T cells were also gated as a CD2+CD4+ population. The EC₅₀s for cell binding titration were determined using Prism software with values calculated using a 4-parameter non-linear regression analysis.
(In flow cytometry, cells or beads pass a laser one at a time.)

In assay [14] the target is T13, human CD3 on Jurkat cells (CD3+, CD20- human T-cell line) (human, UniProt P07766 23-207; P04234 22-171; P09693 23-182; P20963 22-164).
T13 construct: whole, on cells; SP34 is said to react with the epsilon chain
Nature of the assay: FACS, serially diluted antibody on Jurkat cells (CD3+, CD20-). On the procedure:
as §1

The target of assay [15] is T1, human CD20 on cells (Raji, CD3-, CD20+ …). Nature of the assay: FACS, serially diluted antibody on Raji cells (CD3-, CD20+). On the procedure:
as §1

The target is the same in assay [16]. Nature of the assay: cell-based or functional assay. This is another data set of the same source.

B1: Antibody 1 (CD3×CD20-chimericFc bispecific antibody) (bispecific antibody, human IgG4 S228P)
heavy 1: EVQLVESGGGLVQPGRSLRLSCVASGFTFNDYAMHWVRQAPGKGLEWVSVISWNSDSIGYADSVKGRFTISRDNAKNSLYLQMHSLRAEDTALYYCAKDNHYGSGSYYYYQYGMDVWGQGTTVTVSSASTKGPSVFPLAPCSRSTSESTAALGCLVKDYFPEPVTVSWNSGALTSGVHTFPAVLQSSGLYSLSSVVTVPSSSLGTKTYTCNVDHKPSNTKVDKRVESKYGPPCPPCPAPPVAGPSVFLFPPKPKDTLMISRTPEVTCVVVDVSQEDPEVQFNWYVDGVEVHNAKTKPREEQFNSTYRVVSVLTVLHQDWLNGKEYKCKVSNKGLPSSIEKTISKAKGQPREPQVYTLPPSQEEMTKNQVSLTCLVKGFYPSDIAVEWESNGQPENNYKTTPPVLDSDGSFFLYSRLTVDKSRWQEGNVFSCSVMHEALHNHYTQKSLSLSLGK
heavy 2: EVQLVESGGGLVQPGRSLRLSCAASGFTFDDYTMHWVRQAPGKGLEWVSGISWNSGSIGYADSVKGRFTISRDNAKKSLYLQMNSLRAEDTALYYCAKDNSGYGHYYYGMDVWGQGTTVTVASASTKGPSVFPLAPCSRSTSESTAALGCLVKDYFPEPVTVSWNSGALTSGVHTFPAVLQSSGLYSLSSVVTVPSSSLGTKTYTCNVDHKPSNTKVDKRVESKYGPPCPPCPAPPVAGPSVFLFPPKPKDTLMISRTPEVTCVVVDVSQEDPEVQFNWYVDGVEVHNAKTKPREEQFNSTYRVVSVLTVLHQDWLNGKEYKCKVSNKGLPSSIEKTISKAKGQPREPQVYTLPPSQEEMTKNQVSLTCLVKGFYPSDIAVEWESNGQPENNYKTTPPVLDSDGSFFLYSRLTVDKSRWQEGNVFSCSVMHEALHNRFTQKSLSLSLGK
VL: EIVMTQSPATLSVSPGERATLSCRASQSVSSNLAWYQQKPGQAPRLLIYGASTRATGIPARFSGSGSGTEFTLTISSLQSEDFAVYYCQHYINWPLTFGGGTKVEIKR
notes: Only the light chain variable region is tied to this antibody; also called Ab 1; Ab1
Turning to B1, the “% Survival B16F10.9/CD20 cells [M] (EC50, target-specific killing, FACS)” value in assay [1] turned out to be 1.95e-11 M. The “Raji Cytotoxicity Activated Human T-cells [M] (EC50, calcein release)” value in [2] was 2.5e-11 M. Moreover, the “Raji Cytotoxicity Activated Monkey T-cells [M] (EC50, calcein release)” value in [2] is 9.1e-12 M. In addition, the binding result in assay [3], in assay [8], in [9] and in assay [12] was “no binding” each time. Besides, the Kd – broadly, the free concentration of one partner at which half of the binding sites on the other are occupied at equilibrium, for simple one-to-one binding – in [4] came out at 120 nM; in [5] it was 663 nM; in [6] it was 139 nM; in assay [7], 1230 nM; in [10] it was 193 nM; in assay [11], 231 nM.

B2: Antibody 2 (CD3×CD20-chimericFc bispecific antibody) (bispecific antibody, human IgG1)
heavy 1: EVQLVESGGGLVQPGRSLRLSCVASGFTFNDYAMHWVRQAPGKGLEWVSVISWNSDSIGYADSVKGRFTISRDNAKNSLYLQMHSLRAEDTALYYCAKDNHYGSGSYYYYQYGMDVWGQGTTVTVSSASTKGPSVFPLAPSSKSTSGGTAALGCLVKDYFPEPVTVSWNSGALTSGVHTFPAVLQSSGLYSLSSVVTVPSSSLGTQTYICNVNHKPSNTKVDKKVEPKSCDKTHTCPPCPAPPVAGPSVFLFPPKPKDTLMISRTPEVTCVVVDVSQEDPEVQFNWYVDGVEVHNAKTKPREEQFNSTYRVVSVLTVLHQDWLNGKEYKCKVSNKGLPSSIEKTISKAKGQPREPQVYTLPPSRDELTKNQVSLTCLVKGFYPSDIAVEWESNGQPENNYKTTPPVLDSDGSFFLYSKLTVDKSRWQQGNVFSCSVMHEALHNHYTQKSLSLSPGK
heavy 2: EVQLVESGGGLVQPGRSLRLSCAASGFTFDDYTMHWVRQAPGKGLEWVSGISWNSGSIGYADSVKGRFTISRDNAKKSLYLQMNSLRAEDTALYYCAKDNSGYGHYYYGMDVWGQGTTVTVASASTKGPSVFPLAPSSKSTSGGTAALGCLVKDYFPEPVTVSWNSGALTSGVHTFPAVLQSSGLYSLSSVVTVPSSSLGTQTYICNVNHKPSNTKVDKKVEPKSCDKTHTCPPCPAPPVAGPSVFLFPPKPKDTLMISRTPEVTCVVVDVSQEDPEVQFNWYVDGVEVHNAKTKPREEQFNSTYRVVSVLTVLHQDWLNGKEYKCKVSNKGLPSSIEKTISKAKGQPREPQVYTLPPSRDELTKNQVSLTCLVKGFYPSDIAVEWESNGQPENNYKTTPPVLDSDGSFFLYSKLTVDKSRWQQGNVFSCSVMHEALHNRFTQKSLSLSPGK
VL: B1 VL
notes: also called Ab 2
For B2, the binding result in assay [3], in assay [8], in assay [9] and in assay [12] was “no binding” throughout. Further, the Kd worked out at 117 nM in assay [4]; 424 nM in assay [5]; 146 nM in assay [6]; 2330 nM in assay [7]; 205 nM in [10]; 235 nM in [11].

B3: (Control) Antibody 4, CD3×CD20 antibody-wild-type Fc (wtFc) (bispecific antibody, human IgG1)
heavy 1: not shown
heavy 2: not shown
VL: B1 VL
notes: Same variable regions as Antibody 1 and Antibody 2, wild-type IgG1 CH; also called Control Ab 4; Control 4
On to B3, for which, in assay [13], the EC50 (commonly the concentration giving half of the maximal effect) is 8740 nM. In assay [14], this molecule showed an EC50 of 38.5 nM. In addition, in [1], the “% Survival B16F10.9/CD20 cells [M] (EC50, target-specific killing, FACS)” value was 1.28e-11 M. In assay [15], the midpoint of the response, the EC50, lay at 59.9 nM. For the same molecule, in assay [2], the “Raji Cytotoxicity Activated Human T-cells [M] (EC50, calcein release)” value was 1.57e-11 M and the “Raji Cytotoxicity Activated Monkey T-cells [M] (EC50, calcein release)” value is 1.73e-12 M. Moreover, in [16], the “Raji Cytotoxicity Human T-cells [M] (EC50, calcein release)” value is 5.63e-11 M and the “Raji Cytotoxicity Monkey T-cells [M] (EC50, calcein release)” value is 1.27e-12 M.
